Reference: patent US20160264649A1

Assays:
Test in all cases: cell-based or functional assay
[1] = target: HIV-1 Env of isolate 92UG001 (subtype D) (HIV-1)
[2] = target: HIV-1 Env of isolate 92UG005 (subtype D) (HIV-1)
[3] = target: HIV-1 Env of isolate 92UG024 (subtype D) (HIV-1)
[4] = target: HIV-1 Env of isolate 92UG046 (subtype D) (HIV-1)
[5] = target: HIV-1 Env of isolate 92UG114 (subtype D) (HIV-1)
[6] = target: HIV-1 Env of isolate 98CN006 (subtype CRF08_BC) (HIV-1)
[7] = target: HIV-1 Env of isolate 98CN009 (subtype CRF07_BC) (HIV-1)
[8] = target: HIV-1 Env of isolate MGRM-D-001 (subtype D) (HIV-1)
[9] = target: HIV-1 Env of isolate MGRM-D-002 (subtype D) (HIV-1)
[10] = target: HIV-1 Env of isolate MGRM-D-003 (subtype D) (HIV-1)
[11] = target: HIV-1 Env of isolate MGRM-D-004 (subtype D) (HIV-1)
[12] = target: HIV-1 Env of isolate MGRM-D-005 (subtype D) (HIV-1)
[13] = target: HIV-1 Env of isolate MGRM-D-008 (subtype D) (HIV-1)
[14] = target: HIV-1 Env of isolate MGRM-D-011 (subtype D) (HIV-1)
[15] = target: HIV-1 Env of isolate MGRM-D-012 (subtype D) (HIV-1)
[16] = target: HIV-1 Env of isolate MGRM-D-013 (subtype D) (HIV-1)
[17] = target: HIV-1 Env of isolate MGRM-D-014 (subtype D) (HIV-1)
[18] = target: HIV-1 Env of isolate MGRM-D-016 (subtype D) (HIV-1)
[19] = target: HIV-1 Env of isolate MGRM-D-018 (subtype D) (HIV-1)
[20] = target: HIV-1 Env of isolate MGRM-D-019 (subtype D) (HIV-1)
[21] = target: HIV-1 Env of isolate MGRM-D-020 (subtype D) (HIV-1)
[22] = target: HIV-1 Env of isolate MGRM-D-021 (subtype D) (HIV-1)
[23] = target: HIV-1 Env of isolate MGRM-D-022 (subtype D) (HIV-1)
[24] = target: HIV-1 Env of isolate MGRM-D-024 (subtype D) (HIV-1)
[25] = target: HIV-1 Env of isolate MGRM-D-026 (subtype D) (HIV-1)
[26] = target: HIV-1 Env of isolate MGRM-D-028 (subtype D) (HIV-1)
[27] = target: HIV-1 Env of isolate MGRM-D-029 (subtype D) (HIV-1)
[28] = target: HIV-1 Env of isolate MGRM-F1-004 (subtype F) (HIV-1)
[29] = target: HIV-1 Env of isolate MGRM-F1-006 (subtype F) (HIV-1)
[30] = target: HIV-1 Env of isolate MGRM-F1-008 (subtype F) (HIV-1)
[31] = target: HIV-1 Env of isolate MGRM-F1-010 (subtype F) (HIV-1)
[32] = target: HIV-1 Env of isolate MGRM-F1-012 (subtype F) (HIV-1)
[33] = target: HIV-1 Env of isolate MGRM-F1-013 (subtype F) (HIV-1)
[34] = target: HIV-1 Env of isolate MGRM-F1-014 (subtype F) (HIV-1)
[35] = target: HIV-1 Env of isolate MGRM-F1-015 (subtype F) (HIV-1)
[36] = target: HIV-1 Env of isolate MGRM-F1-016 (subtype F) (HIV-1)
[37] = target: HIV-1 Env of isolate MGRM-F1-017 (subtype F) (HIV-1)
[38] = target: HIV-1 Env of isolate MGRM-F1-018 (subtype F) (HIV-1)
[39] = target: HIV-1 Env of isolate MGRM-F1-020 (subtype F) (HIV-1)
[40] = target: HIV-1 Env of isolate MGRM-F1-021 (subtype F) (HIV-1)
[41] = target: HIV-1 Env of isolate MGRM-F1-022 (subtype F) (HIV-1)
[42] = target: HIV-1 Env of isolate MGRM-F1-023 (subtype F) (HIV-1)
[43] = target: HIV-1 Env of pseudovirus isolate MGRM-G-001 (subtype G) (HIV-1)
[44] = target: HIV-1 Env of pseudovirus isolate MGRM-G-004 (subtype G) (HIV-1)
[45] = target: HIV-1 Env of pseudovirus isolate MGRM-G-006 (subtype G) (HIV-1)
[46] = target: HIV-1 Env of pseudovirus isolate MGRM-G-009 (subtype G) (HIV-1)
[47] = target: HIV-1 Env of pseudovirus isolate MGRM-G-011 (subtype G) (HIV-1)
[48] = target: HIV-1 Env of pseudovirus isolate MGRM-G-013 (subtype G) (HIV-1)
[49] = target: HIV-1 Env of pseudovirus isolate MGRM-G-014 (subtype G) (HIV-1)
[50] = target: HIV-1 Env of pseudovirus isolate MGRM-G-015 (subtype G) (HIV-1)
[51] = target: HIV-1 Env of pseudovirus isolate MGRM-G-016 (subtype G) (HIV-1)
[52] = target: HIV-1 Env of pseudovirus isolate MGRM-G-017 (subtype G) (HIV-1)
[53] = target: HIV-1 Env of pseudovirus isolate MGRM-G-019 (subtype G) (HIV-1)
[54] = target: HIV-1 Env of pseudovirus isolate MGRM-G-024 (subtype G) (HIV-1)
[55] = target: HIV-1 Env of pseudovirus isolate MGRM-G-025 (subtype G) (HIV-1)
[56] = target: HIV-1 Env of pseudovirus isolate MGRM-G-027 (subtype G) (HIV-1)
[57] = target: HIV-1 Env of pseudovirus isolate MGRM-G-028 (subtype G) (HIV-1)
[58] = target: envelope of aMLV pseudovirus (negative control)

Substance: PGT-121 (antibody)
- IC50 (neutralization) [1]: > 50 µg/mL
- IC50 (neutralization) [2]: 18.3 µg/mL
- IC50 (neutralization) [3]: > 50 µg/mL
- IC50 (neutralization) [4]: > 50 µg/mL
- IC50 (neutralization) [5]: 0.004 µg/mL
- IC50 (neutralization) [6]: 0.01 µg/mL
- IC50 (neutralization) [7]: 0.009 µg/mL
- IC50 (neutralization) [8]: 0.615 µg/mL
- IC50 (neutralization) [9]: 0.006 µg/mL
- IC50 (neutralization) [10]: 10.7 µg/mL
- IC50 (neutralization) [11]: > 50 µg/mL
- IC50 (neutralization) [12]: > 50 µg/mL
- IC50 (neutralization) [13]: > 50 µg/mL
- IC50 (neutralization) [14]: 0.018 µg/mL
- IC50 (neutralization) [15]: > 50 µg/mL
- IC50 (neutralization) [16]: > 50 µg/mL
- IC50 (neutralization) [17]: 0.009 µg/mL
- IC50 (neutralization) [18]: > 50 µg/mL
- IC50 (neutralization) [19]: 0.005 µg/mL
- IC50 (neutralization) [20]: > 50 µg/mL
- IC50 (neutralization) [21]: 0.01 µg/mL
- IC50 (neutralization) [22]: 5.33 µg/mL
- IC50 (neutralization) [23]: > 50 µg/mL
- IC50 (neutralization) [24]: 0.038 µg/mL
- IC50 (neutralization) [25]: > 50 µg/mL
- IC50 (neutralization) [26]: 0.009 µg/mL
- IC50 (neutralization) [27]: > 50 µg/mL
- IC50 (neutralization) [28]: 1.67 µg/mL
- IC50 (neutralization) [29]: 5.33 µg/mL
- IC50 (neutralization) [30]: > 50 µg/mL
- IC50 (neutralization) [31]: 0.016 µg/mL
- IC50 (neutralization) [32]: 1.91 µg/mL
- IC50 (neutralization) [33]: 0.083 µg/mL
- IC50 (neutralization) [34]: 0.082 µg/mL
- IC50 (neutralization) [35]: 28.4 µg/mL
- IC50 (neutralization) [36]: 0.931 µg/mL
- IC50 (neutralization) [37]: 16.9 µg/mL
- IC50 (neutralization) [38]: 0.04 µg/mL
- IC50 (neutralization) [39]: 0.167 µg/mL
- IC50 (neutralization) [40]: 0.099 µg/mL
- IC50 (neutralization) [41]: 0.104 µg/mL
- IC50 (neutralization) [42]: 0.097 µg/mL
- IC50 [43]: 0.004 µg/mL
- IC50 [44]: 0.115 µg/mL
- IC50 [45]: > 50 µg/mL
- IC50 [46]: 0.02 µg/mL
- IC50 [47]: 3.17 µg/mL
- IC50 [48]: 3.99 µg/mL
- IC50 [49]: 0.009 µg/mL
- IC50 [50]: > 50 µg/mL
- IC50 [51]: > 50 µg/mL
- IC50 [52]: 0.004 µg/mL
- IC50 [53]: 0.011 µg/mL
- IC50 [54]: 0.014 µg/mL
- IC50 [55]: 0.063 µg/mL
- IC50 [56]: 0.124 µg/mL
- IC50 [57]: 0.014 µg/mL
- IC50 [58]: > 50 µg/mL

Substance: PGT-122 (antibody)
- IC50 (neutralization) [1]: > 50 µg/mL
- IC50 (neutralization) [2]: > 50 µg/mL
- IC50 (neutralization) [3]: > 50 µg/mL
- IC50 (neutralization) [4]: > 50 µg/mL
- IC50 (neutralization) [5]: 0.011 µg/mL
- IC50 (neutralization) [6]: 0.021 µg/mL
- IC50 (neutralization) [7]: 0.013 µg/mL
- IC50 (neutralization) [8]: 1.13 µg/mL
- IC50 (neutralization) [9]: 0.005 µg/mL
- IC50 (neutralization) [10]: > 50 µg/mL
- IC50 (neutralization) [11]: > 50 µg/mL
- IC50 (neutralization) [12]: > 50 µg/mL
- IC50 (neutralization) [13]: > 50 µg/mL
- IC50 (neutralization) [14]: 0.019 µg/mL
- IC50 (neutralization) [15]: > 50 µg/mL
- IC50 (neutralization) [16]: > 50 µg/mL
- IC50 (neutralization) [17]: 0.012 µg/mL
- IC50 (neutralization) [18]: > 50 µg/mL
- IC50 (neutralization) [19]: 0.007 µg/mL
- IC50 (neutralization) [20]: > 50 µg/mL
- IC50 (neutralization) [21]: 0.007 µg/mL
- IC50 (neutralization) [22]: 11.7 µg/mL
- IC50 (neutralization) [23]: > 50 µg/mL
- IC50 (neutralization) [24]: 0.185 µg/mL
- IC50 (neutralization) [25]: > 50 µg/mL
- IC50 (neutralization) [26]: 3.34 µg/mL
- IC50 (neutralization) [27]: > 50 µg/mL
- IC50 (neutralization) [28]: 1.29 µg/mL
- IC50 (neutralization) [29]: 3.27 µg/mL
- IC50 (neutralization) [30]: > 50 µg/mL
- IC50 (neutralization) [31]: 0.024 µg/mL
- IC50 (neutralization) [32]: > 50 µg/mL
- IC50 (neutralization) [33]: 0.152 µg/mL
- IC50 (neutralization) [34]: 0.195 µg/mL
- IC50 (neutralization) [35]: 31.4 µg/mL
- IC50 (neutralization) [36]: 4.81 µg/mL
- IC50 (neutralization) [37]: > 50 µg/mL
- IC50 (neutralization) [38]: 0.563 µg/mL
- IC50 (neutralization) [39]: 0.321 µg/mL
- IC50 (neutralization) [40]: 2.3 µg/mL
- IC50 (neutralization) [41]: 0.277 µg/mL
- IC50 (neutralization) [42]: 0.154 µg/mL
- IC50 [43]: 0.005 µg/mL
- IC50 [44]: 2.15 µg/mL
- IC50 [45]: > 50 µg/mL
- IC50 [46]: 0.514 µg/mL
- IC50 [47]: 31.3 µg/mL
- IC50 [48]: 3.45 µg/mL
- IC50 [49]: 0.008 µg/mL
- IC50 [50]: > 50 µg/mL
- IC50 [51]: > 50 µg/mL
- IC50 [52]: 0.032 µg/mL
- IC50 [53]: 0.016 µg/mL
- IC50 [54]: 0.033 µg/mL
- IC50 [55]: 0.079 µg/mL
- IC50 [56]: 0.606 µg/mL
- IC50 [57]: 0.01 µg/mL
- IC50 [58]: > 50 µg/mL
